Test results as given in patent publication US20240010720A1 (IOMX THERAPEUTICS, published 2024).
Like-named read-outs stand apart in the source and are kept apart here.

Key:
[1] = target: T1, human IGSF11 (VSIG3) on cells (human, UniProt Q5DX21 23-431); assay: FACS, HEK cells expressing IGSF11
T1 sequence: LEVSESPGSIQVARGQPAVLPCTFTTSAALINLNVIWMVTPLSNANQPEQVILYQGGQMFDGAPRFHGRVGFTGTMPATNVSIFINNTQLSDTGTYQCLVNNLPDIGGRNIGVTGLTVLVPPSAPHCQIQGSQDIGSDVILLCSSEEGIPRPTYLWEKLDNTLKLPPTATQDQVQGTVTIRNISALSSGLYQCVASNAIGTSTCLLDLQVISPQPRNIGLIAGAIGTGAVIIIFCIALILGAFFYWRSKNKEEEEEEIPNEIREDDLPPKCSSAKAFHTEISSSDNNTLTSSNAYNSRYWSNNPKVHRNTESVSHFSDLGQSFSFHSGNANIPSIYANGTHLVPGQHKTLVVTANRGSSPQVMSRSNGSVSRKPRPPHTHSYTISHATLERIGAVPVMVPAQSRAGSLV

[2] = target: T1, human IGSF11 (VSIG3) on cells; assay: FACS, IgG1-format antibodies; DMS 273 cells (D) treated with scrambled control siRNA (SC)
[3] = target: T1, human IGSF11 (VSIG3) on cells; assay: FACS, IgG1-format antibodies; CL-11 cells (C), a line that does not express IGSF11 (specificity control), scrambled control siRNA (SC)
[4] = target: T1, human IGSF11 (VSIG3) on cells; assay: FACS, DMS 273 cells
[5] = target: T1, human IGSF11 (VSIG3) on cells; assay: FACS, IgG1-format antibodies; M579-A2-luc cells (M) treated with IGSF11 siRNA (KD)
[6] = target: T2, His-tagged extracellular domain (ECD) of human IGSF11 (VSIG3) (human, UniProt Q5DX21 23-241); assay: blocking ELISA: antibody pre-incubated with His-tagged IGSF11 ECD, complexes added to immobilised VSIR-Fc; y axis % remaining IGSF11 binding to VSIR, x axis nM IgG per legend
T2 construct: partly bought (SinoBiological 13094-H08H); also called IGSF11-HIS; HIS-IGSF11; not shown: HIS6 tag
T2 sequence: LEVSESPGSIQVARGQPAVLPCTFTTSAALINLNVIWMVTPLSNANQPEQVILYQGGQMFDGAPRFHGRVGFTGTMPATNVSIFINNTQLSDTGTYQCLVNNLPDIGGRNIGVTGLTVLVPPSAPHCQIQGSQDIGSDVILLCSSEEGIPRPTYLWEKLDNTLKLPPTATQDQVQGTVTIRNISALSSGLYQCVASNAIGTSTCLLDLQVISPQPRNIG

[7] = target: T2, His-tagged extracellular domain (ECD) …; assay: ELISA EC50 grade, IgG1
[8] = target: T3, recombinant human IGSF11 (VSIG3) extracellular domain (ECD) (human, UniProt Q5DX21 23-241, biotinylated where captured on streptavidin); assay: BLI, IgG1
T3 construct: also called biotinylated recombinant ECD-IGSF11; IGSF11 (ECD domain)
T3 sequence: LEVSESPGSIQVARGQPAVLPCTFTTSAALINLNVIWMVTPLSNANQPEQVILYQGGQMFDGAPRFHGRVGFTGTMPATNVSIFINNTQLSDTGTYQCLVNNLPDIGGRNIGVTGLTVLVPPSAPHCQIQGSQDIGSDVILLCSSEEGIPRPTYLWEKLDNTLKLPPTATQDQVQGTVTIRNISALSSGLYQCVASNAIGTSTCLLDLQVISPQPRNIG

[9] = target: T1, human IGSF11 (VSIG3) on cells; assay: FACS, IgG1-format antibodies; DMS 273 cells (D) treated with IGSF11 siRNA (KD)
[10] = target: T3, recombinant human IGSF11 (VSIG3) …; assay: SPR, IgG1
[11] = target: T1, human IGSF11 (VSIG3) on cells; assay: FACS, IgG1-format antibodies; M579-A2-luc cells (M) treated with scrambled control siRNA (SC)
[12] = target: T2, His-tagged extracellular domain (ECD) …; assay: ELISA: IgG1-format antibody titrated on coated His-tagged IGSF11; x axis nM IgG, y axis absorbance per legend
[13] = target: T1, human IGSF11 (VSIG3) on cells; assay: FACS, IgG1-format antibodies; CL-11 cells (C), a line that does not express IGSF11 (specificity control), IGSF11 siRNA (KD)
[14] = target: T2, His-tagged extracellular domain (ECD) …; assay: ELISA: IgG1-format antibody titrated on coated His-tagged IGSF11; x axis nM IgG, y axis absorbance per legend; remark: listed apart in the source
[15] = target: T2, His-tagged extracellular domain (ECD) …; assay: blocking ELISA: antibody pre-incubated with His-tagged IGSF11 ECD, complexes added to immobilised VSIR-Fc; y axis % remaining IGSF11 binding to VSIR, x axis nM IgG per legend; remark: listed apart in the source
[16] = target: T4, IgC2 domain of human IGSF11 fused to murine IgG2a Fc-region (human; mouse, UniProt Q5DX21 137-241); assay: ELISA, IgG
T4 construct: also called IgC2-like domain mFc fusion; not shown: murine IgG2a Fc-region
T4 sequence: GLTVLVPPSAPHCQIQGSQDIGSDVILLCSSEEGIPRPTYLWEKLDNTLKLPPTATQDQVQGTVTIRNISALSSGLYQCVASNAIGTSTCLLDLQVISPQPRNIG

[17] = target: T5, IGSF11 ECD fused to murine-Fc (human; mouse, UniProt Q5DX21 23-241); assay: ELISA, IgG
T5 construct: also called Fc-fusion IGSF11 ECD; full-length ECD of IGSF11; not shown: murine Fc
T5 sequence: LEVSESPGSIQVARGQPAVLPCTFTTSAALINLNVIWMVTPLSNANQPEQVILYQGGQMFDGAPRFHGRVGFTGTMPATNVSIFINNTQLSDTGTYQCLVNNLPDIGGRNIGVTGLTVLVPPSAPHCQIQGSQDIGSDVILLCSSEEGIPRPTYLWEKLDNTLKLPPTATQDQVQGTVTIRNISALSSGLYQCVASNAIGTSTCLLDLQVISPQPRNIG

[18] = target: T5, IGSF11 ECD fused to murine-Fc; assay: ELISA, IgG; remark: listed apart in the source
Excerpt: Expi293 cells (ThermoFisher) were transiently transfected with DNA sequences encoding the applicable IGSF11 domain-mFc fusions according to the manufacturer's instructions, and cultured under conditions suitable to the IGSF11 domain fusion. Cell supernatants were harvested 5 days post transfection and the expressed Fc-protein purified via Protein A affinity chromatography (GE Healthcare). IGSF11 domain Fc-fusion proteins were re-buffered into PBS pH7.4. […] The surface was blocked with 2% (w/v) skim milk powder in PBST. After three wash cycles with PBST, a dilution series of IgG-format ABPs was transferred to the immobilized the Fc-fusion IGSF11 ECD or the IGSF11 domains and incubated for 1 h. After removing all unbound antibodies by 3 wash cycles with PBST, bound IgG ABPs were detected with a goat anti-human IgG antibody conjugated with horseradish peroxidase. After three wash cycles with PBST the ELISA was developed with TMB substrate.

B1: A-012 (IgG1 format) (antibody, V domains shown)
VH: EVQLLESGGGLIQPGGSLRLSCAVSGFTVSSNYMSWVRQAPGKGLEWVSVIYSGGSTYYADSVKGRFTISRDNSKNTLYLQMNSLRAEDTAVYYCARGNPYYYGDLQVNFDYWGQGTLVTVSS
VL: QAVVTQEPSLTVSPGGTVTLTCASSTGAVTSGYYPNWFQQKPGQAPRALIYSTSNKHSWTPARFSGSLLGGKAALTLSGVQPEDEAEYYCLLYYGGAWVFGGGTKLTVL
notes: human IgG1 format
EC50 [1]: 10 to 50 nM | percentage binding (FACS heat-map) [2]: 75.8% | percentage binding (FACS heat-map) [3]: 5.11% | EC50 [4]: 10 to 50 nM | percentage binding (FACS heat-map) [5]: 2.35% | IC50 (read off the curve) [6]: ~2 nM | EC50 [7]: 0.02 to 0.05 nM | Kd [8]: 1 to 10 nM | percentage binding (FACS heat-map) [9]: 4.77% | Kd [10]: 250 to 500 nM | percentage binding (FACS heat-map) [11]: 65.4% | EC50 (read off the curve) [12]: ~0.007 nM | percentage binding (FACS heat-map) [13]: 3.93%

B2: B-003 (chain-swapped IgG1) (antibody, V domains shown)
VH: EVQLLESGGGLIQPGGSLRLSCAVSGFTVSSNYMSWVRQAPGKGLEWVSVIYSGGSTYYADSVKGRFTISRDNSKNTLYLQMNSLRAEDTAVYYCARGNPYYYGDLQVNFDYWGQGTLVTVSS
VL: QAVVTQEPSLTVSPGETVTLTCASSTGAVTSGYYPNWFQQRPGQAPRALIYSTSNKDSWTPARFSGSLLGGKAALTLSGVQPEDEAEYYCLLYYGGAWVFGGGTKLTVL
notes: human IgG1 format; also called B3
IC50 (read off the curve) [6]: ~2 nM | EC50 (read off the curve) [12]: ~0.008 nM

B3: B-007 (chain-swapped IgG1) (antibody, V domains shown)
VH: EVQLVESGGGLIQPGGSLRLSCAASGFTVSSNYMSWVRQAPGKGLEWVSVIYSGGSTYYADSVKGRFTISRDNSKNTLYLQMNSLRAEDTAVYYCARGNPYYYGDLQVNFDYWGQGTLVTVSS
VL: QAVVTQEPSLTVSPGGTVTLTCASSTGAVTSAYYPNWFQQKPGQAPRALIYSTSNKHSWTPARFSGSLLGGKAALTLSGVQPEDEADYYCLLYYGGAWVFGGGTKLTVL
notes: human IgG1 format; also called B7
EC50 (read off the curve) [14]: ~0.01 nM | IC50 (read off the curve) [15]: ~3 nM

B4: B-006 (chain-swapped IgG1) (antibody, V domains shown)
VH: EVQLVESGGGLIQPGGSLRLSCAASGFTVSSNYMSWVRQAPGKGLEWVSVIYSGGSTYYADSVKGRFTISRDNSKNTLYLQMNSLRAEDTAVYYCARGNPYYYGDLQVNFDYWGQGTLVTVSS
VL: QAVVTQEPSLTVSPGETVTLTCASSTGAVTSGYYPNWFQQRPGQAPRALIYSTSNKDSWTPARFSGSLLGGKAALTLSGVQPEDEAEYYCLLYYGGAWVFGGGTKLTVL
notes: human IgG1 format; also called B6
EC50 (read off the curve) [14]: ~0.02 nM | IC50 (read off the curve) [15]: ~5 nM

B5: B-005 (chain-swapped IgG1) (antibody, V domains shown)
VH: EVQLLESGGGLIQPGGSLRLSCAVSGFTVSSNYMSWVRQAPGKGLEWVSVIYSGGSTYYADSVKGRFTISRDNSKNTLYLQMNSLRAEDTAVYYCARGNPYYYGDLQVNFDYWGQGTLVTVSS
VL: QAVVTQEPSLTVSPGGTVTPTCGSSTGAVTSGNLPNWFQQKPGQAPRALIYSTSNKHSWTPARISGSLLGGKAALTLSGVQPEDEAEYYCLLYYGGAWVFGGGTKLTVL
notes: human IgG1 format; also called B5
IC50 (read off the curve) [6]: ~2 nM | EC50 (read off the curve) [12]: ~0.01 nM

B6: C-014 (IgG1 format) (antibody, V domains shown)
VH: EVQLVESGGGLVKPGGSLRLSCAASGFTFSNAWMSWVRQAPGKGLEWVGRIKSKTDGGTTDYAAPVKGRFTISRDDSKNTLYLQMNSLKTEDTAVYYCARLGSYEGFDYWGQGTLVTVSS
VL: SYELTQPPSVSVSPGQTASITCSGDKLGDKYASWYQQKPGQSPVLVIYQDSKRPSGIPERFSGSNSGNTATLTISGTQAEDEADYYCSTYTVTSSVVVFGGGTKLTVL
notes: wildtype human IgG1 and kappa or lambda constant regions
EC50 [16]: < 1 nM | EC50 [17]: 1 to 20 nM

B7: C-011 (IgG1 format) (antibody, V domains shown)
VH: QVQLVQSGAEVKKPGSSVKVSCKASGGTFSSYAISWVRQAPGQGLEWMGGIIPIFGTANYAQKFQGRVTITADESTSTAYMELSSLRSEDTAVYYCARHSTPSFLQYWGQGTLVTVSS
VL: SYELTQPPSVSVSPGQTASITCSGDKLGDKYASWYQQKPGQSPVLVIYQDSKRPSGIPERFSGSNSGNTATLTISGTQAEDEADYYCAVYPAHASARWVFGGGTKLTVL
notes: as for B6
EC50 [16]: < 1 nM | EC50 [17]: < 1 nM

B8: A-011 (IgG1 format) (antibody, V domains shown)
VH: QVQLVESGGGVVQPGRSLRLSCAASGFTFSSYAMHWVRQAPGKGLEWVAVISYDGSNKYYADSVKGRFTISRDNSKNTLYLQMNSLRAEDTAVYYCAEGGALNYYGMDVWGQGTTVTVSS
VL: SSELTQDPGVSVALGQTVRITCQGDSLRHFYATWYQQKPGQAPILVIYGKNNRPSGIPDRFSGSSSEDTASLTITGAQAEDEADYYCQSRDPRNNHLIFGGGTKLIVL
notes: human IgG1 format
EC50 [1]: > 50 nM | percentage binding (FACS heat-map) [2]: 6.95% | percentage binding (FACS heat-map) [3]: 2.87% | percentage binding (FACS heat-map) [5]: 2.41% | EC50 [7]: < 0.02 nM | Kd [8]: 10 to 20 nM | percentage binding (FACS heat-map) [9]: 3.4% | EC50 [18]: < 1 nM | Kd [10]: 250 to 500 nM | percentage binding (FACS heat-map) [11]: 2.05% | percentage binding (FACS heat-map) [13]: 4.86%
